Reference: the supplement of paper PMC10567573

B1: MLL5 (parent)
chain: DCMGIDRQHIPDTYLCERCQPRNL
B2: ZBTB22 (parent)
chain: AVLAASSPYFHDQVLLKGMTSISL

Variants of: B1
Assay: protein stability index of a GFP-peptide fusion (GPS, HEK-293T) (PSI 1-6); higher = more stable
Conditions: c terminus: a fixed tail appended
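Further: lentivirally expressed fusions sorted by FACS into six bins by GFP to DsRed ratio, PSI derived from sequencing read proportions per bin multiplied by bin number.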

Variant | protein stability index
N23Y | 1.94
N23K | 2.73
N23M | 2.83
N23I | 2.29
N23W | 2.49
N23S | 3.07
N23D | 3.08
N23Q | 2.62
N23P | 3.1
N23C | 1.85
N23A | 2.09
N23E | 2.86
N23H | 2.36
N23V | 2
N23F | 2.58
N23L | 2.5
N23G | 3
N23R | 1.53
N23T | 2.61
R22V | 2.67
R22S | 3.31
R22M | 1.86
R22P | 3.34
R22Y | 2.49
R22T | 3.34

Variant | protein stability index
R22H | 2.72
R22D | 3.42
R22E | 3.98
R22K | 3.19
R22G | 3.28
R22C | 3.66
R22I | 2.9
R22N | 2.94
R22F | 2.35
R22A | 3.57
R22W | 1.99
R22L | 3.31
R22Q | 3.19
L24N | 3.26
L24W | 2.77
L24P | 2.64
L24V | 2.84
L24I | 2.36
L24S | 3.84
L24Y | 2.86
L24Q | 3.51
L24T | 3.14
L24E | 3.44
L24D | 3.88
L24M | 2.69

Variant | protein stability index
L24H | 2.91
L24K | 4.2
L24R | 2.62
L24G | 3.73
L24A | 3.55
L24F | 2.71
L24C | 3.24
P21T | 2.95
P21F | 2.49
P21Q | 3.93
P21W | 1.7
P21L | 3.61
P21E | 4
P21V | 2.48
P21N | 3.21
P21I | 2.5
P21D | 4.21
P21M | 3.62
P21H | 2.76
P21K | 3.53
P21Y | 2.88
P21S | 2.93
P21R | 3.4
P21G | 3.45

Variants of: B2
Assay: as above
Conditions: c terminus: a fixed tail appended

Variant | protein stability index
S21F | 2.52
S21D | 2.17
S21Q | 2.67
S21A | 2.04
S21G | 2.85
S21E | 1.95
S21Y | 3.85
S21K | 2.35
S21N | 2.11
S21L | 3.04
S21C | 3.52
S6W | 3.82
S6P | 2.23
S6N | 3.54
S6T | 2.4
S6Q | 3.02
S6K | 2.05
S6I | 1.97
S6R | 1.67
S6E | 1.41
S6D | 2.61
S6G | 2.75
L16F | 2.47
L16W | 2.44

Variant | protein stability index
L16Q | 2.32
L16N | 2.37
L16M | 3.83
L16C | 3.99
L16P | 2.27
L16D | 1.93
L16G | 2.28
L16Y | 3.11
L16K | 3
L16S | 2.26
S7L | 2.91
S7Y | 1.47
S7E | 2.33
S7H | 2.8
S7T | 3.75
S7I | 4.5
S7W | 2
S7D | 3.38
D12P | 3.38
D12T | 2.95
D12A | 2.68
D12R | 3.23
D12L | 2.57
D12N | 1.98

Variant | protein stability index
D12W | 2.12
D12K | 1.39
D12Q | 3.51
D12Y | 3.7
S23M | 1.86
S23F | 4.12
S23W | 2.97
S23E | 2.57
S23T | 1.22
S23K | 2.8
S23G | 3.35
S23I | 2.51
S23C | 1.95
S23P | 3.55
S23H | 2.46
S23D | 1.3
Q13G | 2.15
Q13V | 2.02
Q13T | 3.86
Q13L | 1.43
Q13I | 4.9
Q13H | 2.48
Q13F | 3
Q13M | 2.94

Variant | protein stability index
Q13P | 1.64
Q13D | 3.61
Q13A | 3.38
K17A | 1.94
K17Y | 2.88
K17P | 2.05
K17N | 1.43
K17I | 3.47
I22A | 3.31
I22D | 1.66
I22C | 1.83
I22H | 2.43
I22E | 4.43
I22Q | 1.09
I22Y | 3.76
I22N | 1.44
I22S | 1.29
I22G | 2.4
I22T | 2.75
I22P | 1.72
V2N | 1.63
V2H | 2.52
V2S | 2.33
V2C | 1.04

Variant | protein stability index
V2E | 1.41
V2I | 2.75
V2T | 1.45
V2D | 2.17
V2Q | 1.62
V2K | 1.97
V2R | 2.15
V2W | 1.79
L24T | 1.27
L24N | 1.83
L24K | 1.95
L24R | 1.84
L24H | 1.95
L24A | 1.58
L24Y | 3.14
L24S | 1.15
L24V | 1.53
L24I | 3.01
L24P | 1.62
L24Q | 1.7
L24F | 3.47
L24E | 1.52
L24D | 1.76
A5W | 1.88

Variant | protein stability index
A5H | 2.04
A5E | 1.55
A5F | 2.98
A5N | 2.66
A5K | 3.55
A5T | 3.75
A5Q | 3.23
A5Y | 2.44
A5S | 2.6
L3I | 3.32
L3T | 2.38
L3C | 2.92
L3Q | 1.93
L3N | 2.38
L3A | 2.48
L3H | 2.22
L3P | 3.11
L3M | 3.26
L3R | 1.45
L3K | 1.64
L3E | 2.04
L3S | 1.45
M19Q | 1.46
M19W | 1.8

Variant | protein stability index
M19S | 2.68
M19E | 1.69
M19K | 1.37
M19T | 2.57
M19C | 3.68
M19L | 2.23
M19A | 2.09
M19P | 3.42
M19G | 1.04
M19R | 2.92
A4G | 1.92
A4D | 1.15
A4L | 2.9
A4H | 4.29
A4S | 1.88
A4F | 2.24
A4E | 2.48
A4Y | 2
A4I | 2.48
A4M | 2.04
A4K | 2.92
A4P | 1.05
P8D | 2.5
P8R | 4.82

Variant | protein stability index
P8I | 2.73
P8L | 3.83
P8H | 2.88
P8G | 3.22
P8A | 2.55
P8F | 2.55
G18H | 1.84
G18D | 3.05
G18V | 2.66
G18Y | 3.35
G18K | 2.14
G18N | 2.37
G18I | 2.8
G18W | 2.61
G18S | 3.59
G18A | 3.06
G18F | 3.77
V14R | 3.36
V14C | 3.27
V14M | 2.72
V14D | 1.71
V14A | 2.47
V14T | 2.96
V14Q | 1.73

Variant | protein stability index
V14E | 2.47
V14K | 1.04
V14Y | 2.25
V14F | 1.8
V14H | 2.37
V14S | 3.06
V14N | 2.07
L15P | 1.3
L15C | 1.87
L15M | 1.94
L15H | 1.4
L15A | 1.66
L15K | 2.3
L15D | 2.77
L15N | 2.76
L15G | 3.34
L15E | 1.38
L15I | 3.58
L15Q | 1.76
L15F | 3.52
T20M | 3.42
T20V | 4.26
T20H | 1.6
T20Q | 2.14

Variant | protein stability index
T20I | 2.3
T20N | 2.51
T20E | 2.54
T20L | 3.1
A1E | 4.15
A1T | 4.21
A1C | 3.85
A1N | 2.3
A1K | 3.83
A1Y | 2.9
A1M | 2.57
A1H | 4.3
A1Q | 2.39
F10R | 1.41
F10S | 1.87
F10D | 2.04
F10K | 1.73
F10W | 2.24
F10M | 2.72
F10Q | 1.65
F10C | 2.28
F10Y | 2.19
F10G | 2.6
F10N | 1.92

Variant | protein stability index
F10P | 1
F10H | 2.49
F10V | 2.44
F10E | 1.76
Y9E | 2.05
Y9N | 2.96
Y9D | 2.17
Y9F | 3.55
Y9V | 2.54
Y9H | 1.33
Y9A | 1.37
Y9I | 4.18
Y9P | 1.84
H11S | 2.71
H11M | 4.12
H11D | 3.15
H11I | 1.58
H11T | 3.44
H11P | 2.11
H11L | 1.89
